The results in this text go back to US20080096809A1.

In the assay the target is Tar-1 all-L NBD peptide (Escherichia coli). The assay is described as follows: FRET in PE/PG (7:3 w/w) SUV, NBD donor and rhodamine-TAMRA acceptor, acceptor-to-lipid ratio 1:7500.

B1: Tar-1 diastereomeric rhodamine peptide (peptide)
peptide: KKKMVLGVFALLQLISGSLKK
modifications: not checked
Turning to B1, the energy transfer is 30%.
